Measurements reported in patent US20240383990A1 (DIAGONAL THERAPEUTICS, published 2024).

T1: IL-18 receptor (IL-18Rα and IL-18Rβ) on HEK-Blue IL-18 cells (UniProt Q13478 19-541; O95256 20-599, limits assumed)
T1 sequence (looked up) 1: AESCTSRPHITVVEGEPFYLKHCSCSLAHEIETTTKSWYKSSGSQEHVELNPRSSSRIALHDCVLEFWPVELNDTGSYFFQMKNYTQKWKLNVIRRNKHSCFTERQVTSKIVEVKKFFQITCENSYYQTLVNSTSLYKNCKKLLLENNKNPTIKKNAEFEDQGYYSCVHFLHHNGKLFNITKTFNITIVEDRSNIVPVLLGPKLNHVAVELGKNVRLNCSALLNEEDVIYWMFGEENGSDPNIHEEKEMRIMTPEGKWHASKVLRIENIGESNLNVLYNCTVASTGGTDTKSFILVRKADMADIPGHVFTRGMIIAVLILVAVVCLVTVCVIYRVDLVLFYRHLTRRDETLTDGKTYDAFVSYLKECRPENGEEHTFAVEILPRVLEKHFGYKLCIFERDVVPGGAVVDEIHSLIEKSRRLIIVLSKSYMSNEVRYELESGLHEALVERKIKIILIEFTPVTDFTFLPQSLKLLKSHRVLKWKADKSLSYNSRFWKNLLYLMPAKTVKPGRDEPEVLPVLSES
T1 sequence (looked up) 2: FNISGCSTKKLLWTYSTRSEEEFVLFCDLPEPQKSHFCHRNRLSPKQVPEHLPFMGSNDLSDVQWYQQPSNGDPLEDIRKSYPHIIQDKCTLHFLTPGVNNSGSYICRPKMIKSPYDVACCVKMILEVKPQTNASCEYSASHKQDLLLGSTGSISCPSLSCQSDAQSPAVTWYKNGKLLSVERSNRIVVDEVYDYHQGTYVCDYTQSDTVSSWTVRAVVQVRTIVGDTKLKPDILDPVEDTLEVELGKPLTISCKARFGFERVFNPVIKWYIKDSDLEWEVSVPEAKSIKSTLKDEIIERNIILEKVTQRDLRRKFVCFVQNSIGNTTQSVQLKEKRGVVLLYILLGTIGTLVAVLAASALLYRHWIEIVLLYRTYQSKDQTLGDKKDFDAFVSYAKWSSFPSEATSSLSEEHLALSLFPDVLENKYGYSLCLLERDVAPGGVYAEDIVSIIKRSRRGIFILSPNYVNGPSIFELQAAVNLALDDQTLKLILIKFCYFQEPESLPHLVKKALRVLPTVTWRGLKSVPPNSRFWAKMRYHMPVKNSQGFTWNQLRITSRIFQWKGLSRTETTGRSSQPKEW


How the values were obtained:
[1] = target: T1, IL-18 receptor (IL-18Rα and IL-18Rβ) on …; assay: cell-based or functional assay
[2] = target: T1, IL-18 receptor (IL-18Rα and IL-18Rβ) on …; assay: cell-based or functional assay; remark: listed apart in the source

Row | Binder | HEK-Blue assay, % human IL-18 [1] | HEK-Blue assay, % human IL18 [2]
1 | DGL211 (bispecific antibody) chain 1: QVQLVESGGGLVQAGGSLRLSCAASGRTFSKHAMGWFRQAPGKEREFVAAIDWSGGSTYYADSVKGRFTISRDNAKNTVYLQMDSLKPEDTAVYYCAADSYTDYAQLWLPELESEYDYWGQGTLVTVSSEKSYGPPCPPCPAPEAAGAPSVFLFPPKPKDTLMISRTPEVTCVVVDVSHEDPEVKFNWYVDGVEVHNAKTKPREEQYNSTYRVVSVLTVLHQDWLNGKEYKCKVSNKALPAPIEKTISKAKGQPREPQVCTLPPSRDELTKNQVSLSCAVKGFYPSDIAVEWESNGQPENNYKTTPPVLDSDGSFFLVSKLTVDKSRWQQGNVFSCSVMHEALHNHYTQKSLSLSPGWSHPQFEK chain 2: QLQLVESGGGLVQAGGSLRLSCAASRSITFSHNVMGWYRQAPGKQRELVASIGSGGSTNYVDSVKGRATISRDNAKKTVYLQMNSLKPEDTAVYYCGVVVGVYRGSLGQGTLVTVSSEKSYGPPCPPCPAPEAAGAPSVFLFPPKPKDTLMISRTPEVTCVVVDVSHEDPEVKFNWYVDGVEVHNAKTKPREEQYNSTYRVVSVLTVLHQDWLNGKEYKCKVSNKALPAPIEKTISKAKGQPREPQVYTLPPCRDELTKNQVSLWCLVKGFYPSDIAVEWESNGQPENNYKTTPPVLDSDGSFFLYSKLTVDKSRWQQGNVFSCSVMHEALHNHYTQKSLSLSPGEPEA | 50 % of human IL18 activity | 
2 | DGL213 (bispecific antibody) chain 1: QVQLVESGGGLVQAGGSLRLSCAASGRTFSKHAMGWFRQAPGKEREFVAAIDWSGGSTYYADSVKGRFTISRDNAKNTVYLQMDSLKPEDTAVYYCAADSYTDYAQLWLPELESEYDYWGQGTLVTVSSDKTHTCPPCPAPEAAGAPSVFLFPPKPKDTLMISRTPEVTCVVVDVSHEDPEVKFNWYVDGVEVHNAKTKPREEQYNSTYRVVSVLTVLHQDWLNGKEYKCKVSNKALPAPIEKTISKAKGQPREPQVCTLPPSRDELTKNQVSLSCAVKGFYPSDIAVEWESNGQPENNYKTTPPVLDSDGSFFLVSKLTVDKSRWQQGNVFSCSVMHEALHNHYTQKSLSLSPGWSHPQFEK chain 2: QLQLVESGGGLVQAGGSLRLSCAASRSITFSHNVMGWYRQAPGKQRELVASIGSGGSTNYVDSVKGRATISRDNAKKTVYLQMNSLKPEDTAVYYCGVVVGVYRGSLGQGTLVTVSSCPPCPAPEAAGAPSVFLFPPKPKDTLMISRTPEVTCVVVDVSHEDPEVKFNWYVDGVEVHNAKTKPREEQYNSTYRVVSVLTVLHQDWLNGKEYKCKVSNKALPAPIEKTISKAKGQPREPQVYTLPPCRDELTKNQVSLWCLVKGFYPSDIAVEWESNGQPENNYKTTPPVLDSDGSFFLYSKLTVDKSRWQQGNVFSCSVMHEALHNHYTQKSLSLSPGEPEA |  | 42 % human IL18
3 | DGL214 (bispecific antibody) chain 1: QVQLVESGGGLVQAGGSLRLSCAASGRTFSKHAMGWFRQAPGKEREFVAAIDWSGGSTYYADSVKGRFTISRDNAKNTVYLQMDSLKPEDTAVYYCAADSYTDYAQLWLPELESEYDYWGQGTLVTVSSDKTHTCPPCPAPEAAGAPSVFLFPPKPKDTLMISRTPEVTCVVVDVSHEDPEVKFNWYVDGVEVHNAKTKPREEQYNSTYRVVSVLTVLHQDWLNGKEYKCKVSNKALPAPIEKTISKAKGQPREPQVCTLPPSRDELTKNQVSLSCAVKGFYPSDIAVEWESNGQPENNYKTTPPVLDSDGSFFLVSKLTVDKSRWQQGNVFSCSVMHEALHNHYTQKSLSLSPGWSHPQFEK chain 2: not shown |  | 31 % human IL18
4 | DGL212 (bispecific antibody) chain 1: QVQLVESGGGLVQAGGSLRLSCAASGRTFSKHAMGWFRQAPGKEREFVAAIDWSGGSTYYADSVKGRFTISRDNAKNTVYLQMDSLKPEDTAVYYCAADSYTDYAQLWLPELESEYDYWGQGTLVTVSSDKTHTCPPCPAPEAAGAPSVFLFPPKPKDTLMISRTPEVTCVVVDVSHEDPEVKFNWYVDGVEVHNAKTKPREEQYNSTYRVVSVLTVLHQDWLNGKEYKCKVSNKALPAPIEKTISKAKGQPREPQVCTLPPSRDELTKNQVSLSCAVKGFYPSDIAVEWESNGQPENNYKTTPPVLDSDGSFFLVSKLTVDKSRWQQGNVFSCSVMHEALHNHYTQKSLSLSPGWSHPQFEK chain 2: not shown | 41 % of human IL18 activity | 
5 | DGL210 (bispecific antibody) chain 1: QVQLVESGGGLVQAGGSLRLSCAASGRTFSKHAMGWFRQAPGKEREFVAAIDWSGGSTYYADSVKGRFTISRDNAKNTVYLQMDSLKPEDTAVYYCAADSYTDYAQLWLPELESEYDYWGQGTLVTVSSGGGGSGGGGSGGGGSGGGGSCPPCPAPEAAGAPSVFLFPPKPKDTLMISRTPEVTCVVVDVSHEDPEVKFNWYVDGVEVHNAKTKPREEQYNSTYRVVSVLTVLHQDWLNGKEYKCKVSNKALPAPIEKTISKAKGQPREPQVCTLPPSRDELTKNQVSLSCAVKGFYPSDIAVEWESNGQPENNYKTTPPVLDSDGSFFLVSKLTVDKSRWQQGNVFSCSVMHEALHNHYTQKSLSLSPGWSHPQFEK chain 2: QLQLVESGGGLVQAGGSLRLSCAASRSITFSHNVMGWYRQAPGKQRELVASIGSGGSTNYVDSVKGRATISRDNAKKTVYLQMNSLKPEDTAVYYCGVVVGVYRGSLGQGTLVTVSSGGGGSGGGGSGGGGSGGGGSCPPCPAPEAAGAPSVFLFPPKPKDTLMISRTPEVTCVVVDVSHEDPEVKFNWYVDGVEVHNAKTKPREEQYNSTYRVVSVLTVLHQDWLNGKEYKCKVSNKALPAPIEKTISKAKGQPREPQVYTLPPCRDELTKNQVSLWCLVKGFYPSDIAVEWESNGQPENNYKTTPPVLDSDGSFFLYSKLTVDKSRWQQGNVFSCSVMHEALHNHYTQKSLSLSPGEPEA | 34 % of human IL18 activity | 

Further lines, results first:

Row | HEK-Blue assay, % human IL-18 [1] | HEK-Blue assay, % human IL18 [2] | Binder
6 |  | 22 % human IL18 | DGL216 (bispecific antibody) chain 1: QVQLVESGGGLVQAGGSLRLSCAASGRTFSKHAMGWFRQAPGKEREFVAAIDWSGGSTYYADSVKGRFTISRDNAKNTVYLQMDSLKPEDTAVYYCAADSYTDYAQLWLPELESEYDYWGQGTLVTVSSDKTHTCPPCPAPEAAGAPSVFLFPPKPKDTLMISRTPEVTCVVVDVSHEDPEVKFNWYVDGVEVHNAKTKPREEQYNSTYRVVSVLTVLHQDWLNGKEYKCKVSNKALPAPIEKTISKAKGQPREPQVCTLPPSRDELTKNQVSLSCAVKGFYPSDIAVEWESNGQPENNYKTTPPVLDSDGSFFLVSKLTVDKSRWQQGNVFSCSVMHEALHNHYTQKSLSLSPGWSHPQFEK chain 2: QLQLVESGGGLVQAGGSLRLSCAASRSITFSHNVMGWYRQAPGKQRELVASIGSGGSTNYVDSVKGRATISRDNAKKTVYLQMNSLKPEDTAVYYCGVVVGVYRGSLGQGTLVTVSSGGGGSGGGGSGGGGSGGGGSCPPCPAPEAAGAPSVFLFPPKPKDTLMISRTPEVTCVVVDVSHEDPEVKFNWYVDGVEVHNAKTKPREEQYNSTYRVVSVLTVLHQDWLNGKEYKCKVSNKALPAPIEKTISKAKGQPREPQVYTLPPCRDELTKNQVSLWCLVKGFYPSDIAVEWESNGQPENNYKTTPPVLDSDGSFFLYSKLTVDKSRWQQGNVFSCSVMHEALHNHYTQKSLSLSPGEPEA
7 |  | 40 % human IL18 | DGL215 (bispecific antibody) chain 1: QVQLVESGGGLVQAGGSLRLSCAASGRTFSKHAMGWFRQAPGKEREFVAAIDWSGGSTYYADSVKGRFTISRDNAKNTVYLQMDSLKPEDTAVYYCAADSYTDYAQLWLPELESEYDYWGQGTLVTVSSDKTHTCPPCPAPEAAGAPSVFLFPPKPKDTLMISRTPEVTCVVVDVSHEDPEVKFNWYVDGVEVHNAKTKPREEQYNSTYRVVSVLTVLHQDWLNGKEYKCKVSNKALPAPIEKTISKAKGQPREPQVCTLPPSRDELTKNQVSLSCAVKGFYPSDIAVEWESNGQPENNYKTTPPVLDSDGSFFLVSKLTVDKSRWQQGNVFSCSVMHEALHNHYTQKSLSLSPGWSHPQFEK chain 2: QLQLVESGGGLVQAGGSLRLSCAASRSITFSHNVMGWYRQAPGKQRELVASIGSGGSTNYVDSVKGRATISRDNAKKTVYLQMNSLKPEDTAVYYCGVVVGVYRGSLGQGTLVTVSSPLAPCPPCPAPEAAGAPSVFLFPPKPKDTLMISRTPEVTCVVVDVSHEDPEVKFNWYVDGVEVHNAKTKPREEQYNSTYRVVSVLTVLHQDWLNGKEYKCKVSNKALPAPIEKTISKAKGQPREPQVYTLPPCRDELTKNQVSLWCLVKGFYPSDIAVEWESNGQPENNYKTTPPVLDSDGSFFLYSKLTVDKSRWQQGNVFSCSVMHEALHNHYTQKSLSLSPGEPEA
